# ± gives the standard deviation of the averaged measurements.
# System: ATP
# Assay: switch fluorescence ratio, 500 uM ATP over buffer (Cy3 cluster intensity, sum of 5 cycles each) (fold (ratio)); higher = stronger signal-on switching upon ATP binding; sequences stand for … in TCGTCGGCAGCGTCAGATGTGTATAAGAGACAGTTTTTTTTTTTTTTTTTTTTTTTTT…TC
# Conditions: aptamer strand: ATP DNA aptamer (quencher-CACCTGGGGGAGTATTGCGGAGGAAGG + anchor), 100 nM annealed; ATP concentration: 500 uM
# Summary of the method: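 Cy3-labelled switching-strand clusters on a modified Illumina MiSeq flow-cell were annealed to 100 nM quencher-labelled ATP aptamer, imaged in selection buffer, then imaged after 15 min with 500 uM ATP at 22 °C. Five buffer/ATP cycles ran, with NaOH stripping and re-annealing between them. The fluorescence ratio is summed target-cycle over summed buffer-cycle Cy3 intensity per cluster, averaged per switch-domain sequence. Clusters outside 100-1000 RFU were excluded.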
# 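Further: ATP exposure 15 min at 22 °C before imaging.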
row,Sequence,switch fluorescence ratio
1,AGTAGTAAGA,1.01 ± 0.022
2,AGTAGTATAT,0.994 ± 0.03
3,AGTAGTATTT,1.017 ± 0.0014
4,AGTATAGCGA,1.01 ± 0.035
5,AGTATATAC,1.02 ± 0.029
6,AGTATCATGT,1.02 ± 0.063
7,AGTATCATTT,0.952 ± 0.02
8,AGTATGACGG,0.986 ± 0.036
9,AGTATGTAGC,0.997 ± 0.032
10,AGTATGTGAA,0.97601 ± 0.00029
11,AGTATTCAAA,1 ± 0.018
12,AGTATTCTTA,0.99324 ± 0.00072
13,AGTATTGCGA,0.974 ± 0.01
14,AGTATTGGGG,0.999 ± 0.025
15,AGTATTTAGT,1.003 ± 0.0092
16,AGTATTTTGC,0.969 ± 0.085
17,AGTATTTTGT,0.974 ± 0.011
18,AGTCAATGAC,0.968 ± 0.012
19,AGTCAATTGC,1 ± 0.033
20,AGTCAGATTC,1 ± 0.058
21,AGTCATCACC,1.02 ± 0.023
22,AGTCATCTGC,1 ± 0.013
23,AGTCATGGAG,0.987 ± 0.042
24,AGTCATGTGC,0.979 ± 0.038
25,AGTCCCGCCT,1.12 ± 0.14

row,Sequence,switch fluorescence ratio
1,AGTCCGATGT,1.04 ± 0.038
2,AGTCCGTCTA,1.01 ± 0.05
3,AGTCCTTGGA,0.99 ± 0.069
4,AGTCGACGTA,1.04 ± 0.089
5,AGTCGAGTGG,1.02 ± 0.047
6,AGTCGATGTG,0.966 ± 0.025
7,AGTCGATTTT,0.978 ± 0.012
8,AGTCGCACGA,0.986 ± 0.016
9,AGTCGGGCGG,1 ± 0.026
10,AGTCGGGGTT,0.979 ± 0.01
11,AGTCGGGTAC,1.04 ± 0.033
12,AGTCGGTACG,0.994 ± 0.096
13,AGTCTAAATT,1.02 ± 0.011
14,AGTCTGACCA,1.018 ± 0.005
15,AGTCTGGATG,0.96 ± 0.02
16,AGTCTGGTCC,0.987 ± 0.01
17,AGTCTGTGCT,0.97353 ± 0.00097
18,AGTCTTGCTG,0.989 ± 0.02
19,AGTCTTTTGT,0.997 ± 0.026
20,AGTCTTTTTT,1 ± 0.0038
21,AGTGAAGCTG,0.996 ± 0.027
22,AGTGAGAATC,1.036 ± 0.0046
23,AGTGAGGCGT,0.984 ± 0.018
24,AGTGAGTCCG,0.996 ± 0.01
25,AGTGAGTCTT,0.994 ± 0.032

row,Sequence,switch fluorescence ratio
1,AGTGATAGAT,0.967 ± 0.023
2,AGTGCAAAAG,1.06 ± 0.029
3,AGTGCAGGTT,0.97386 ± 7.1e-05
4,AGTGCGAAGG,0.97211 ± 0.00025
5,AGTGCGGGGA,0.993 ± 0.04
6,AGTGCGGGTC,1.02 ± 0.012
7,AGTGCTTCGT,0.9905 ± 0.0094
8,AGTGGAGGGG,0.969 ± 0.029
9,AGTGGAGGTG,1.03 ± 0.043
10,AGTGGCATGT,0.986 ± 0.012
11,AGTGGCCGGG,1.01 ± 0.027
12,AGTGGCGTGT,0.988 ± 0.022
13,AGTGGGAAAG,0.965 ± 0.027
14,AGTGGGCGCA,1.04 ± 0.042
15,AGTGGGGCAG,0.986 ± 0.0071
16,AGTGGGGCC,1 ± 0.075
17,AGTGGGGCTT,0.985 ± 0.043
18,AGTGGGGTTT,0.976 ± 0.013
19,AGTGGGTGCT,1.02 ± 0.039
20,AGTGGTCG,1.04 ± 0.033
21,AGTGGTGATC,1.04 ± 0.018
22,AGTGGTTCG,1 ± 0.018
23,AGTGGTTGTG,0.973 ± 0.0069
24,AGTGTAATAT,1 ± 0.023
25,AGTGTATGGC,1.01 ± 0.032

row,Sequence,switch fluorescence ratio
1,AGTGTCACGA,1.01 ± 0.015
2,AGTGTCGCTG,1.008 ± 0.0012
3,AGTGTCTGC,0.97 ± 0.087
4,AGTGTCTGGG,0.992 ± 0.022
5,AGTGTGAGGT,0.9858 ± 0.0091
6,AGTGTGTGGA,1.04 ± 0.021
7,AGTGTGTGGG,1.02 ± 0.03
8,AGTGTTCGTT,0.959 ± 0.023
9,AGTGTTGGGC,1.05 ± 0.023
10,AGTGTTTAAT,0.999 ± 0.032
11,AGTGTTTTGG,0.967 ± 0.024
12,AGTGTTTTTT,1.01 ± 0.046
13,AGTTAACATG,0.978 ± 0.016
14,AGTTAACTGT,0.996 ± 0.032
15,AGTTAAGAGC,1.01 ± 0.038
16,AGTTAAGATA,0.9907 ± 0.0031
17,AGTTACATTG,1.02 ± 0.041
18,AGTTACCA,1.054 ± 0.0038
19,AGTTACCTCT,1.03 ± 0.013
20,AGTTACGGGT,1.033 ± 0.0032
21,AGTTAGGAGG,0.947 ± 0.053
22,AGTTAGGGGA,1.01 ± 0.038
23,AGTTAGTGT,0.978 ± 0.051
24,AGTTAGTTTT,1 ± 0.017
25,AGTTATACAA,1.01 ± 0.037

# Source: the supplement of paper PMC10126150
